Test results reported in patent publication US20200392227A1 (LYVGEN BIOPHARMA, published 2020).
Read-outs that look alike come from different tables or passages of the source.

Legend:
Test in all cases: BLI
[1] = target: T1, human FcRI protein (MednaBio, E1031) (human, UniProt P12314 16-288, limits assumed)
T1 construct: Bought; loaded on anti-penta-HIS biosensors; also called FcγRI

[2] = target: T2, human FcRIIA protein (MednaBio, E1033) (human, UniProt P12318 34-218, limits assumed)
T2 construct: Bought; also called FcγRIIA
T2 sequence (looked up): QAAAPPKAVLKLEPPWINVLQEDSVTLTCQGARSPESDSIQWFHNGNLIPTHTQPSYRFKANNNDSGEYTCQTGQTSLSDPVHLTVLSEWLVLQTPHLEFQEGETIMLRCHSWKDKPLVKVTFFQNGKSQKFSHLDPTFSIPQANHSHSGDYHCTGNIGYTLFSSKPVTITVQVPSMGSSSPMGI

[3] = target: T3, human FcRIIB/C protein (MednaBio, E1034) (human, UniProt P31994 43-217, limits assumed)
T3 construct: Bought as FcRIIB/C; also called FcγRIIB; CD32B
T3 sequence (looked up): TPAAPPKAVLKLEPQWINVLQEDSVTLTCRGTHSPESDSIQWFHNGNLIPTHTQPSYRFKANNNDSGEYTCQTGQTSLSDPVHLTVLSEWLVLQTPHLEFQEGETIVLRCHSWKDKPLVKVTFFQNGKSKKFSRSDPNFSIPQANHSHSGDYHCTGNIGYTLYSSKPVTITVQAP

[4] = target: T4, human FcRIIIA-V158 protein (MednaBio, E1035) (human, UniProt P08637 17-208)
T4 construct: Bought; also called FcγRIIIA(V); FcgRIIIA(V)
T4 sequence (P08637 17-208 F176V): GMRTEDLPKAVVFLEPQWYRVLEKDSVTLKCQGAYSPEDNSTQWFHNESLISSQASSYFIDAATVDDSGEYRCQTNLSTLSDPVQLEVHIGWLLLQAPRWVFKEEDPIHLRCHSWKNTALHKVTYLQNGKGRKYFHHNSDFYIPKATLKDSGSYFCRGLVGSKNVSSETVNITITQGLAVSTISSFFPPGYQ

[5] = target: T5, human FcRn protein (MednaBio, E1032) (human, UniProt P55899 24-297; P61769 21-119)
T5 construct: Bought; assays at pH 6
T5 sequence (P55899 24-297 limits assumed, form in doubt, chain 1 of 2): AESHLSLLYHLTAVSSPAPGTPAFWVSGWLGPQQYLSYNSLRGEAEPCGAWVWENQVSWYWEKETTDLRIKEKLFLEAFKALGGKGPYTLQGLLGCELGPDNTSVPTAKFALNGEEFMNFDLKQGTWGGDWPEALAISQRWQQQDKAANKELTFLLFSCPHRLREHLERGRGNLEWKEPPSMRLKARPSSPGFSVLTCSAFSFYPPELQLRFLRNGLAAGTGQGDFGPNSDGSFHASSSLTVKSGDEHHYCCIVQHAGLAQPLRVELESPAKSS
T5 sequence (P61769 21-119 limits assumed, form in doubt, chain 2 of 2): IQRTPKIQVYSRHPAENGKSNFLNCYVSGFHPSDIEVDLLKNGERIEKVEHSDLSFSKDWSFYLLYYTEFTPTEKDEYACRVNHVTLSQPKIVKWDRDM

[6] = target: T1, human FcRI protein (MednaBio, E1031); remark: listed apart in the source
[7] = target: T2, human FcRIIA protein (MednaBio, E1033); remark: listed apart in the source
[8] = target: T3, human FcRIIB/C protein (MednaBio, E1034); remark: listed apart in the source
[9] = target: T4, human FcRIIIA-V158 protein (MednaBio, …); remark: listed apart in the source
[10] = target: T5, human FcRn protein (MednaBio, E1032); remark: listed apart in the source
[11] = target: T1, human FcRI protein (MednaBio, E1031); remark: listed apart in the source
Outline: (§1)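 On an Octet Red96 System, anti-penta-HIS biosensors loaded with commercial human Fc receptor proteins were dipped into test IgG diluted 1:3 over 8 points from 300 nM. Fcγ receptor runs used pH 7.2 and FcRn runs used pH 6. Global fitting of these biolayer interferometry data gave the values for Kd, kon and koff, using a 1:1 binding model.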

[12] = target: T2, human FcRIIA protein (MednaBio, E1033); remark: listed apart in the source
Outline: as §1

[13] = target: T3, human FcRIIB/C protein (MednaBio, E1034); remark: listed apart in the source
Outline: as §1

[14] = target: T4, human FcRIIIA-V158 protein (MednaBio, …); remark: listed apart in the source
Outline: as §1

[15] = target: T5, human FcRn protein (MednaBio, E1032); remark: listed apart in the source
Outline: as §1

[16] = target: T4, human FcRIIIA-V158 protein (MednaBio, …); remark: listed apart in the source
Outline: as §1

T1 sequence (P12314 16-288 limits assumed): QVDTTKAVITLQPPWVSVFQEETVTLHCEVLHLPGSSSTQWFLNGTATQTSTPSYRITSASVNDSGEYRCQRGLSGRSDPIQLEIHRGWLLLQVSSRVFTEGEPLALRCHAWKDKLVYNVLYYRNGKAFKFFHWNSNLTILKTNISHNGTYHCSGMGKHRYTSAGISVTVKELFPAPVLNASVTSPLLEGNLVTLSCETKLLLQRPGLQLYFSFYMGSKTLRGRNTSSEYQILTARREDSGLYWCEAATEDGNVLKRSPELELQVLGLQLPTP

B1: wild-type human IgG1 control (antibody)
heavy: not shown
light: SYELTQPPSVSVSPGQTASITCSGDNIGDQYAHWYQQKPGQSPVLVIYQDKNRPSGIPERFSGSNSGNTATLTISGTQAMDEADYYCATYTGFGSLAVFGGGTKLTVLGQPKAAPSVTLFPPSSEELQANKATLVCLISDFYPGAVTVAWKADSSPVKAGVETTTPSKQSNNKYAASSYLSLTPEQWKSHRSYSCQVTHEGSTVEKTVAPTECS
notes: Control IgG
Kd [1]: 5.6 nM | koff [1]: 0.0012 s⁻¹ | kon [1]: 220000 M⁻¹ s⁻¹ | Kd [2]: 56 nM | koff [2]: 0.032 s⁻¹ | kon [2]: 570000 M⁻¹ s⁻¹ | Kd [3]: 130 nM | koff [3]: 0.016 s⁻¹ | kon [3]: 120000 M⁻¹ s⁻¹ | Kd [4]: 60 nM | koff [4]: 0.027 s⁻¹ | kon [4]: 450000 M⁻¹ s⁻¹ | Kd [5]: 16 nM | koff [5]: 0.008 s⁻¹ | kon [5]: 480000 M⁻¹ s⁻¹ | Kd [6]: 5.6 nM | koff [6]: 0.0012 s⁻¹ | kon [6]: 220000 M⁻¹ s⁻¹ | Kd [7]: 56 nM | koff [7]: 0.032 s⁻¹ | kon [7]: 570000 M⁻¹ s⁻¹ | Kd [8]: 130 nM | koff [8]: 0.016 s⁻¹ | kon [8]: 120000 M⁻¹ s⁻¹ | Kd [9]: 60 nM | koff [9]: 0.027 s⁻¹ | kon [9]: 450000 M⁻¹ s⁻¹ | Kd [10]: 16 nM | koff [10]: 0.008 s⁻¹ | kon [10]: 480000 M⁻¹ s⁻¹ | Kd [11]: 5.6 nM | koff [11]: 0.0012 s⁻¹ | kon [11]: 220000 M⁻¹ s⁻¹ | Kd [12]: 56 nM | koff [12]: 0.032 s⁻¹ | kon [12]: 570000 M⁻¹ s⁻¹ | Kd [13]: 130 nM | koff [13]: 0.016 s⁻¹ | kon [13]: 120000 M⁻¹ s⁻¹ | Kd [14]: 60 nM | koff [14]: 0.027 s⁻¹ | kon [14]: 450000 M⁻¹ s⁻¹ | Kd [15]: 16 nM | koff [15]: 0.008 s⁻¹ | kon [15]: 480000 M⁻¹ s⁻¹ | Kd [16]: 60 nM | koff [16]: 0.027 s⁻¹ | kon [16]: 450000 M⁻¹ s⁻¹

B2: wild-type human IgG4 control (antibody)
heavy: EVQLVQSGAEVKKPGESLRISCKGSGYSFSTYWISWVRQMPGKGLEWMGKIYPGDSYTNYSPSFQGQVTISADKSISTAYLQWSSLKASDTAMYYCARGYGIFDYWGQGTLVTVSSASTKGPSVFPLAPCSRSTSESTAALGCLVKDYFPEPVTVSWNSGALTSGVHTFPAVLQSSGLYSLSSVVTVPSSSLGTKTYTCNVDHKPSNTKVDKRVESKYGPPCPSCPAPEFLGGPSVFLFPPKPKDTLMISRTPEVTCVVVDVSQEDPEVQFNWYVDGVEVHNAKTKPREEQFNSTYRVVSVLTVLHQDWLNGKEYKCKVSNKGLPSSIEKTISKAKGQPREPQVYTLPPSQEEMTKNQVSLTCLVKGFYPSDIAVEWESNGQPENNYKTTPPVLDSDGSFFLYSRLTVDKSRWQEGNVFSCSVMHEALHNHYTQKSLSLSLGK
light: B1 light
notes: Control IgG
Kd [1]: 4.8 nM | koff [1]: 0.0017 s⁻¹ | kon [1]: 360000 M⁻¹ s⁻¹ | Kd [2]: 400 nM | koff [2]: 0.055 s⁻¹ | kon [2]: 140000 M⁻¹ s⁻¹ | Kd [3]: 400 nM | koff [3]: 0.05 s⁻¹ | kon [3]: 140000 M⁻¹ s⁻¹ | Kd [4]: 550 nM | koff [4]: 0.092 s⁻¹ | kon [4]: 170000 M⁻¹ s⁻¹ | Kd [5]: 18 nM | koff [5]: 0.012 s⁻¹ | kon [5]: 640000 M⁻¹ s⁻¹ | Kd [6]: 4.8 nM | koff [6]: 0.0017 s⁻¹ | kon [6]: 360000 M⁻¹ s⁻¹ | Kd [7]: 400 nM | koff [7]: 0.055 s⁻¹ | kon [7]: 140000 M⁻¹ s⁻¹ | Kd [8]: 400 nM | koff [8]: 0.05 s⁻¹ | kon [8]: 140000 M⁻¹ s⁻¹ | Kd [9]: 550 nM | koff [9]: 0.092 s⁻¹ | kon [9]: 170000 M⁻¹ s⁻¹ | Kd [10]: 18 nM | koff [10]: 0.012 s⁻¹ | kon [10]: 640000 M⁻¹ s⁻¹ | Kd [11]: 4.8 nM | koff [11]: 0.0017 s⁻¹ | kon [11]: 360000 M⁻¹ s⁻¹ | Kd [12]: 400 nM | koff [12]: 0.055 s⁻¹ | kon [12]: 140000 M⁻¹ s⁻¹ | Kd [13]: 400 nM | koff [13]: 0.05 s⁻¹ | kon [13]: 140000 M⁻¹ s⁻¹ | Kd [14]: 550 nM | koff [14]: 0.092 s⁻¹ | kon [14]: 170000 M⁻¹ s⁻¹ | Kd [15]: 18 nM | koff [15]: 0.012 s⁻¹ | kon [15]: 640000 M⁻¹ s⁻¹ | Kd [16]: 550 nM | koff [16]: 0.092 s⁻¹ | kon [16]: 170000 M⁻¹ s⁻¹
